According to patent publication US20050226813A1, “Labelled somatostatin analogs backbone cyclized through metal complexation” (priority 2002, published 2005):
*1 amine or outer side, *2 acyl side, *3 side chain or, on linkers, in order; H or OH if unused. Where no end group is shown, it is not given here. [ ]: non-standard residue; d: D form. ReO = oxorhenium(V), one metal core binding both hemi-chelators, from trichlorooxobis(triphenylphosphine)rhenium(V); GlyN3 = N-(3-aminopropyl)glycine amide, Cys acylated on the omega-amine, NC(=O)CN(CCCN[*:3])[*:1]; N(6-aminohexyl)Gly = O=C(CN(CCCCCCN[*:3])[*:1])[*:2]; N(2-Aminoethyl)Gly = O=C(CN(CCN[*:3])[*:1])[*:2]

Columns and labels:
SST-R2 and SST-R5 = conditions: activity described in WO 99/65508; cited from earlier work
human cloned SST-R2 = target: T1, human cloned SST-R2 (human, UniProt P30874 1-369); assay: inhibition of 125I-Tyr11-SRIF-14 binding to membranes of CHO cells expressing cloned human SST-R2
T1 construct: whole, on cells; Assayed as membrane preparations of CHO cells expressing the cloned receptor, not as intact cells; also called hSST-R2; human SST-R2
Protocol: The SST analogs were tested for their potency in inhibition of the binding of ¹²⁵I-Tyr¹¹-SRIF (based on the method described by Raynor et. al., Molecular Pharmnacology 43: 838, 1993) to membrane preparations expressing the transmembranal SST receptors (SST-R1, 2, 3, 4 or 5). The receptor preparations used for these tests were either from the cloned human receptors selectively and stably expressed in Chinese Hamster Ovary (CHO) cells or from cell lines naturally expressing the SST-R5. Typically, cell membranes were homogenized in Tris buffer in the presence of protease inhibitors and incubated for 30-40 minutes with ¹²⁵I-Tyr¹¹-SRIF with different concentrations of the tested sample. The binding reactions were filtered, the filters were washed and the bound radioactivity was counted in β counter after addition of scintillation colution. Non specific binding was defined as the radioactivity remaining bound in the presence of 1 μM unlabeled SRIF-14.

T1 sequence (P30874 whole entry): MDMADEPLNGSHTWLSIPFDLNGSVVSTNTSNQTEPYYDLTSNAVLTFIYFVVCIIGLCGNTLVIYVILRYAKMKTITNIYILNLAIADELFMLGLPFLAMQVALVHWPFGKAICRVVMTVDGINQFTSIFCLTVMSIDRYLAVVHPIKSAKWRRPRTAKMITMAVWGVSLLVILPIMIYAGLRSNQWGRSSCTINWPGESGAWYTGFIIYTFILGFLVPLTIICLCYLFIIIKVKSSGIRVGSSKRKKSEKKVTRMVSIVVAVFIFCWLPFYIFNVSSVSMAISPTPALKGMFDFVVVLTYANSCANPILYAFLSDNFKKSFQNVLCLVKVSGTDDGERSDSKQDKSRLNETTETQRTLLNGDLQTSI

For “*GABA-Phe-Trp-DTrp-Lys-Thr-Phe-GlyC3*-NH2 [PTR 3173]”, the receptor selectivity (SST-R2 and SST-R5) is listed as “selective for SST-R2 and SST-R5”.

B1: ReO-GF-32 (peptide)
peptide: CFWWKTFG
modifications: not fully specified; D-Cys at 1; D-Trp at 4; GlyN3 building unit at 8 with D-Cys on its omega-amine; C-terminal amide; ReO (oxorhenium(V)) chelated by the two Cys closes the ring
B1 showed an IC50 (human cloned SST-R2) of 14 nM.

B2: ReO-GF-12 (peptide)
peptide: CGFWWKTFG
modifications: not fully specified; D-Cys at 1; D-Trp at 5; GlyN6 building unit at 9 with D-Cys on its omega-amine; C-terminal amide; ReO (oxorhenium(V)) chelated by the two Cys closes the ring
For B2, the IC50 (human cloned SST-R2) was 9 nM.

B3: ReO-GF-38 (peptide)
peptide: CXFWWKTFG
modifications: L-Cys at 1; beta-Ala at 2 (written X); D-Trp at 5; GlyN2 building unit at 9 with D-Cys on its omega-amine; C-terminal amide; ReO (oxorhenium(V)) chelated by the two Cys closes the ring
For B3, the IC50 (human cloned SST-R2) was over 10 nM.

B4: ReO-GF-9 (peptide)
peptide: CGFW[dW]KTF[N(6-aminohexyl)Gly](Cys)-NH2
modifications: bridge (positions not given here); not fully specified (bridges); also: N2S2 oxorhenium(V) chelate via the two Cys
B4 showed an IC50 (human cloned SST-R2) of about 10 nM.

B5: ReO-GF-18 (peptide)
peptide: CXFWWKTFG
modifications: L-Cys at 1; GABA at 2 (written X); D-Trp at 5; GlyN3 building unit at 9 with D-Cys on its omega-amine; C-terminal amide; ReO (oxorhenium(V)) chelated by the two Cys closes the ring
In the case of B5, the IC50 (human cloned SST-R2) is reported as about 10 nM.

B6: ReO-GF-7 (peptide)
peptide: CXFWWKTFG
modifications: not fully specified; D-Cys at 1; beta-Ala at 2 (written X); D-Trp at 5; GlyN6 building unit at 9 with L-Cys on its omega-amine; C-terminal amide; ReO (oxorhenium(V)) chelated by the two Cys closes the ring
B6 gave an IC50 (human cloned SST-R2) of 12 nM.

B7: ReO-GF-4 (peptide)
peptide: CXFWWKTFG
modifications: not fully specified; D-Cys at 1; GABA at 2 (written X); D-Trp at 5; GlyN6 building unit at 9 with D-Cys on its omega-amine; C-terminal amide; ReO (oxorhenium(V)) chelated by the two Cys closes the ring
For B7, the IC50 (human cloned SST-R2) was 12 nM.

B8: ReO-GF-36 (peptide)
peptide: CXFWWKTFG
modifications: not fully specified; D-Cys at 1; GABA at 2 (written X); D-Trp at 5; GlyN2 building unit at 9 with D-Cys on its omega-amine; C-terminal amide; ReO (oxorhenium(V)) chelated by the two Cys closes the ring
With B8 the IC50 (human cloned SST-R2) was over 10 nM.

B9: ReO-GF-42 (peptide)
peptide: CGFW[dW]KTF[N(2-Aminoethyl)Gly](dC)-NH2
modifications: bridge (positions not given here) via ReO; not fully specified (bridges); also: N2S2 oxorhenium(V) chelate via the two Cys
With B9 the IC50 (human cloned SST-R2) was over 10 nM.

B10: ReO-GF-26 (peptide)
peptide: CGFW[dW]KTF[GlyN3](dC)-NH2
modifications: bridge (positions not given here) via ReO; not fully specified (bridges); also: N2S2 oxorhenium(V) chelate via the two Cys
For B10, the IC50 (human cloned SST-R2) was about 10 nM.

B11: ReO-GF-24 (peptide)
peptide: CXFWWKTFG
modifications: not fully specified; D-Cys at 1; beta-Ala at 2 (written X); D-Trp at 5; GlyN3 building unit at 9 with D-Cys on its omega-amine; C-terminal amide; ReO (oxorhenium(V)) chelated by the two Cys closes the ring
Molecule B11 has an IC50 (human cloned SST-R2) of 23 nM.

B12: ReO-GF-21 (peptide)
peptide: CXFWWKTFG
modifications: L-Cys at 1; beta-Ala at 2 (written X); D-Trp at 5; GlyN3 building unit at 9 with L-Cys on its omega-amine; C-terminal amide; ReO (oxorhenium(V)) chelated by the two Cys closes the ring
notes: also called ReO-LCys*-βAla-Phe-Trp-DTrp-Lys-Thr-Phe-GlyN3(LCys*)-NH2
B12 showed an IC50 (human cloned SST-R2) of 1 nM.

B13: ReO-GF-48 (peptide)
peptide: CFWWKTFG
modifications: not fully specified; D-Cys at 1; D-Trp at 4; GlyN2 building unit at 8 with D-Cys on its omega-amine; C-terminal amide; ReO (oxorhenium(V)) chelated by the two Cys closes the ring
For B13, the IC50 (human cloned SST-R2) was over 10 nM.

B14: ReO-GF-5 (peptide)
peptide: CXFWWKTFG
modifications: L-Cys at 1; beta-Ala at 2 (written X); D-Trp at 5; GlyN6 building unit at 9 with L-Cys on its omega-amine; C-terminal amide; ReO (oxorhenium(V)) chelated by the two Cys closes the ring
For B14, the IC50 (human cloned SST-R2) was 35 nM.

B15: ReO-GF-19 (peptide)
peptide: CXFWWKTFG
modifications: D-Cys at 1; GABA at 2 (written X); D-Trp at 5; GlyN3 building unit at 9 with L-Cys on its omega-amine; C-terminal amide; ReO (oxorhenium(V)) chelated by the two Cys closes the ring
For B15, the IC50 (human cloned SST-R2) was over 10 nM.

B16: ReO-GF-17 (peptide)
peptide: CXFWWKTFG
modifications: L-Cys at 1; GABA at 2 (written X); D-Trp at 5; GlyN3 building unit at 9 with L-Cys on its omega-amine; C-terminal amide; ReO (oxorhenium(V)) chelated by the two Cys closes the ring
Work on B16 yielded an IC50 (human cloned SST-R2) of 24 nM.

B17: ReO-GF-6 (peptide)
peptide: CXFWWKTFG
modifications: L-Cys at 1; beta-Ala at 2 (written X); D-Trp at 5; GlyN6 building unit at 9 with D-Cys on its omega-amine; C-terminal amide; ReO (oxorhenium(V)) chelated by the two Cys closes the ring
notes: also called ReO-GF-06; ReO-LCys*-βAla-Phe-Trp-DTrp-Lys-Thr-Phe-GlyN6(DCys*)-NH2
For B17, the IC50 (human cloned SST-R2) was 5.3 nM.

B18: ReO-GF-27 (peptide)
peptide: CGFWWKTFG
modifications: not fully specified; D-Cys at 1; D-Trp at 5; GlyN3 building unit at 9 with L-Cys on its omega-amine; C-terminal amide; ReO (oxorhenium(V)) chelated by the two Cys closes the ring
With B18 the IC50 (human cloned SST-R2) was 20 nM.

B19: ReO-GF-31 (peptide)
peptide: CFWWKTFG
modifications: not fully specified; D-Cys at 1; D-Trp at 4; GlyN3 building unit at 8 with L-Cys on its omega-amine; C-terminal amide; ReO (oxorhenium(V)) chelated by the two Cys closes the ring
notes: also called ReO-DCys*-Phe-Trp-DTrp-Lys-Thr-Phe-GlyN3(LCys*)-NH2
B19 gave an IC50 (human cloned SST-R2) of 1.6 nM.

B20: ReO-GF-46 (peptide)
peptide: CFW[dW]KTF[N(2-Aminoethyl)Gly](dC)-NH2
modifications: bridge (positions not given here) via ReO; not fully specified (bridges); also: N2S2 oxorhenium(V) chelate via the two Cys
In the case of B20, the IC50 (human cloned SST-R2) is reported as over 10 nM.

B21: ReO-GF-1 (peptide)
peptide: CXFWWKTFG
modifications: L-Cys at 1; GABA at 2 (written X); D-Trp at 5; GlyN6 building unit at 9 with L-Cys on its omega-amine; C-terminal amide; ReO (oxorhenium(V)) chelated by the two Cys closes the ring
B21 showed an IC50 (human cloned SST-R2) of 16 nM.

B22: ReO-GF-33 (peptide)
peptide: CXFWWKTFG
modifications: L-Cys at 1; GABA at 2 (written X); D-Trp at 5; GlyN2 building unit at 9 with L-Cys on its omega-amine; C-terminal amide; ReO (oxorhenium(V)) chelated by the two Cys closes the ring
Molecule B22 has an IC50 (human cloned SST-R2) of over 10 nM.

B23: ReO-GF-41 (peptide)
peptide: CGFW[dW]KTF[N(2-Aminoethyl)Gly](Cys)-NH2
modifications: bridge (positions not given here) via ReO; not fully specified (bridges); also: N2S2 oxorhenium(V) chelate via the two Cys
With B23 the IC50 (human cloned SST-R2) was over 10 nM.
